Series [1] in a line: PTT efficiency and photothermal heating profile under 532 nm PTT laser in vials. Type of series: physicochemical.
Series [2] relates to human umbilical vein endothelial cells (HUVECs). The series is described as follows: Cytotoxicity (EZ-Cytox, TEM morphology) in vascular endothelial cells. Type of series: cell-based. The note with it: gold equivalent 10 μM, 24 hours. How it is done: (§1) Specifically, human umbilical vein endothelial cells (HUVECs) and small intestine endothelial cells (Caco-2) were seeded in 96-well plates at a seeding density of 5×10^3 cells for each well and incubated for 24 hours in a CO2 incubator. Next, AuNP, Ce6-AuNP and Lf-PEG-AuNP (gold equivalent concentration of 10 μM) were applied for 24 hours. Next, after washing with PBS buffer, wells were treated with a culture medium containing EZ-Cytox at 37° C. and 5% CO2 for 4 hours. In this case, the absorbance of the medium was measured with a micro-well plate reader at a wavelength of 450 nm, and the results are illustrated in FIGS. 16, 17A and 17B.

Series [3] deals with small intestine endothelial cells (Caco-2). The series can be described thus: Cytotoxicity (EZ-Cytox, TEM morphology) in small intestine endothelial cells. In kind it is cell-based, human. The following applies: Caco-2, gold equivalent 10 μM, 24 hours. On the procedure:
as §1

The mark [4] stands for this setting: 532 nm, 4 W/cm^2, 240 sec, gold equivalent 10 μM.

B1: AuNP-Lf: PEGylated Lf-conjugated AuNP (conjugate, UniProt P02788 20-710, looked up)
Lactotransferrin: GRRRSVQWCAVSQPEATKCFQWQRNMRKVRGPPVSCIKRDSPIQCIQAIAENRADAVTLDGGFIYEAGLAPYKLRPVAAEVYGTERQPRTHYYAVAVVKKGGSFQLNELQGLKSCHTGLRRTAGWNVPIGTLRPFLNWTGPPEPIEAAVARFFSASCVPGADKGQFPNLCRLCAGTGENKCAFSSQEPYFSYSGAFKCLRDGAGDVAFIRESTVFEDLSDEAERDEYELLCPDNTRKPVDKFKDCHLARVPSHAVVARSVNGKEDAIWNLLRQAQEKFGKDKSPKFQLFGSPSGQKDLLFKDSAIGFSRVPPRIDSGLYLGSGYFTAIQNLRKSEEEVAARRARVVWCAVGEQELRKCNQWSGLSEGSVTCSSASTTEDCIALVLKGEADAMSLDGGYVYTAGKCGLVPVLAENYKSQQSSDPDPNCVDRPVEGYLAVAVVRRSDTSLTWNSVKGKKSCHTAVDRTAGWNIPMGLLFNQTGSCKFDEYFSQSCAPGSDPRSNLCALCIGDEQGENKCVPNSNERYYGYTGAFRCLAENAGDVAFVKDVTVLQNTDGNNNEAWAKDLKLADFALLCLDGKRKPVTEARSCHLAMAPNHAVVSRMDKVERLKQVLLHQQAKFGRNGSDCPDKFCLFQSETKNLLFNDNTECLARLHGKTTYEKYLGPQYVAGITNLKKCSTSPLLEACEFLRK
modifications: PEGylated gold nanoparticle conjugate
As to B1, the “PTT efficiency / heat generation (in words)” value in series [1] (532 nm PTT laser, 4 W/cm^2) was “higher PTT efficiency”. In series [1] (setting [4]), the “Maximum temperature (Tmax)” value is 56.3 ± 0.5 °C and the “PTT efficiency (Tmax − T0)” value was 29.6 ± 0.2 °C. Moreover, the “cytotoxicity and morphological changes” value in series [2] is reported as “not detected”. In series [3], the “cytotoxicity and morphological changes” value is given as “not detected”.

The record behind these values is patent US20230173098A1, “NANOPARTICLE COMPLEX FOR ORAL ADMINISTRATION AND USES THEREOF” (IUCF-HYU (Industry-University Cooperation Foundation …, priority 2021, published 2023).
